# Assay results from patent US20180155451A1 (published 2018).
# T1: FcγRIIb extracellular domain with C-terminal His tag (human, UniProt P31994 43-217)
# T1 construct: extracellular domain; expressed in FreeStyle293 cells; analyte in the Biacore assay; also called FcgRIIb; 2b; not shown: His tag at the C terminus
# T1 sequence (looked up): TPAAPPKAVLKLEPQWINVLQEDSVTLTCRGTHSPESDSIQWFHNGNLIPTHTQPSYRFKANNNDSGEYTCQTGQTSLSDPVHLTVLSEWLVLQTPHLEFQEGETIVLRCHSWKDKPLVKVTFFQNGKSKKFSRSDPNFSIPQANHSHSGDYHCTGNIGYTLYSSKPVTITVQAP
# B1: GpH7-A5/GpH7-B3 variant K326_07I/GpL16-k0 (antibody, human IgG1, kappa)
# heavy 1: not shown
# heavy 2: not shown
# light: DIVMTQSPLSLPVTPGEPASISCQASESLVHSNRNTYLHWYLQKPGQSPQLLIYKVSNRFSGVPDRFSGSGSGTDFTLKISRVEAEDVGVYYCSQNTHVPPTFGQGTKVEIERTVAAPSVFIFPPSDEQLKSGTASVVCLLNNFYPREAKVQWKVDNALQSGNSQESVTEQDSKDSTYSLSSTLTLSKADYEKHKVYACEVTHQGLSSPVTKSFNRGEC
# notes: heterodimerized; mutation in the B3 H chain only; also called He Ab K326_07I
# B2: GpH7-A5/GpH7-B3 variant I332_14T/GpL16-k0 (antibody, human IgG1, kappa)
# heavy 1: not shown
# heavy 2: not shown
# light: B1 light
# notes: heterodimerized; mutation in the B3 H chain only; label printed T332_14T, read as I332_14T; also called He Ab I332_14T
# B3: GpH7-A5/GpH7-B3 variant G237_04F/GpL16-k0 (antibody, human IgG1, kappa)
# heavy 1: not shown
# heavy 2: not shown
# light: B1 light
# notes: heterodimerized; mutation in the B3 H chain only; also called He Ab G237_04F
# B4: GpH7-A5/GpH7-B3 variant K334_02A/GpL16-k0 (antibody, human IgG1, kappa)
# heavy 1: not shown
# heavy 2: not shown
# light: B1 light
# notes: heterodimerized; mutation in the B3 H chain only; also called He Ab K334_02A
# B5: GpH7-A5/GpH7-B3 variant K334_05P/GpL16-k0 (antibody, human IgG1, kappa)
# heavy 1: not shown
# heavy 2: not shown
# light: B1 light
# notes: heterodimerized; mutation in the B3 H chain only; also called He Ab K334_05P
# B6: GpH7-A5/GpH7-B3 variant I336_08L/GpL16-k0 (antibody, human IgG1, kappa)
# heavy 1: not shown
# heavy 2: not shown
# light: B1 light
# notes: heterodimerized; mutation in the B3 H chain only; also called He Ab I336_08L
# B7: GpH7-A5/GpH7-B3 variant H268_10E/GpL16-k0 (antibody, human IgG1, kappa)
# heavy 1: not shown
# heavy 2: not shown
# light: B1 light
# notes: heterodimerized; mutation in the B3 H chain only; also called He Ab H268_10E
# B8: GpH7-A5/GpH7-B3 variant K326_20W/GpL16-k0 (antibody, human IgG1, kappa)
# heavy 1: not shown
# heavy 2: not shown
# light: B1 light
# notes: heterodimerized; mutation in the B3 H chain only; also called He Ab K326_20W
# B9: GpH7-A5/GpH7-B3 variant K334_04F/GpL16-k0 (antibody, human IgG1, kappa)
# heavy 1: not shown
# heavy 2: not shown
# light: B1 light
# notes: heterodimerized; mutation in the B3 H chain only; also called He Ab K334_04F
# B10: GpH7-A5/GpH7-B3 variant K326_06M/GpL16-k0 (antibody, human IgG1, kappa)
# heavy 1: not shown
# heavy 2: not shown
# light: B1 light
# notes: heterodimerized; mutation in the B3 H chain only; also called He Ab K326_06M
# B11: GpH7-A5/GpH7-B3 variant K326_03V/GpL16-k0 (antibody, human IgG1, kappa)
# heavy 1: not shown
# heavy 2: not shown
# light: B1 light
# notes: heterodimerized; mutation in the B3 H chain only; also called He Ab K326_03V
# B12: GpH7-A5/GpH7-B3 variant K334_10E/GpL16-k0 (antibody, human IgG1, kappa)
# heavy 1: not shown
# heavy 2: not shown
# light: B1 light
# notes: heterodimerized; mutation in the B3 H chain only; also called He Ab K334_10E
# B13: GpH7-A5/GpH7-B3 variant H268_01G/GpL16-k0 (antibody, human IgG1, kappa)
# heavy 1: not shown
# heavy 2: not shown
# light: B1 light
# notes: heterodimerized; mutation in the B3 H chain only; also called He Ab H268_01G
# B14: GpH7-A5/GpH7-B3 variant H268_13S/GpL16-k0 (antibody, human IgG1, kappa)
# heavy 1: not shown
# heavy 2: not shown
# light: B1 light
# notes: heterodimerized; mutation in the B3 H chain only; also called He Ab H268_13S
# B15: GpH7-A5/GpH7-B3 variant A327_09D/GpL16-k0 (antibody, human IgG1, kappa)
# heavy 1: not shown
# heavy 2: not shown
# light: B1 light
# notes: heterodimerized; mutation in the B3 H chain only; also called He Ab A327_09D
# B16: GpH7-A5/GpH7-B3 variant K326_09D/GpL16-k0 (antibody, human IgG1, kappa)
# heavy 1: not shown
# heavy 2: not shown
# light: B1 light
# notes: heterodimerized; mutation in the B3 H chain only; also called He Ab K326_09D
# B17: GpH7-A5/GpH7-B3 variant I332_06M/GpL16-k0 (antibody, human IgG1, kappa)
# heavy 1: not shown
# heavy 2: not shown
# light: B1 light
# notes: heterodimerized; mutation in the B3 H chain only; also called He Ab I332_06M
# B18: GpH7-A5/GpH7-B3 variant G237_20W/GpL16-k0 (antibody, human IgG1, kappa)
# heavy 1: not shown
# heavy 2: not shown
# light: B1 light
# notes: heterodimerized; mutation in the B3 H chain only; also called He Ab G237_20W
# B19: GpH7-A5/GpH7-B3 variant K326_15Y/GpL16-k0 (antibody, human IgG1, kappa)
# heavy 1: not shown
# heavy 2: not shown
# light: B1 light
# notes: heterodimerized; mutation in the B3 H chain only; also called He Ab K326_15Y
# B20: GpH7-A5/GpH7-B3 variant I332_10E/GpL16-k0 (antibody, human IgG1, kappa)
# heavy 1: not shown
# heavy 2: not shown
# light: B1 light
# notes: heterodimerized; mutation in the B3 H chain only; also called He Ab I332_10E
# B21: GpH7-A5/GpH7-B3 variant A327_10E/GpL16-k0 (antibody, human IgG1, kappa)
# heavy 1: not shown
# heavy 2: not shown
# light: B1 light
# notes: heterodimerized; mutation in the B3 H chain only; also called He Ab A327_10E
# B22: GpH7-A5/GpH7-B3 variant I332_15Y/GpL16-k0 (antibody, human IgG1, kappa)
# heavy 1: not shown
# heavy 2: not shown
# light: B1 light
# notes: heterodimerized; mutation in the B3 H chain only; also called He Ab I332_15Y
# B23: GpH7-A5/GpH7-B3 variant K326_04F/GpL16-k0 (antibody, human IgG1, kappa)
# heavy 1: not shown
# heavy 2: not shown
# light: B1 light
# notes: heterodimerized; mutation in the B3 H chain only; also called He Ab K326_04F
# B24: GpH7-A5/GpH7-B3 variant K326_14T/GpL16-k0 (antibody, human IgG1, kappa)
# heavy 1: not shown
# heavy 2: not shown
# light: B1 light
# notes: heterodimerized; mutation in the B3 H chain only; also called He Ab K326_14T
# B25: GpH7-A5/GpH7-B3 variant K334_08L/GpL16-k0 (antibody, human IgG1, kappa)
# heavy 1: not shown
# heavy 2: not shown
# light: B1 light
# notes: heterodimerized; mutation in the B3 H chain only; also called He Ab K334_08L
# B26: GpH7-A5/GpH7-B3 variant I332_04F/GpL16-k0 (antibody, human IgG1, kappa)
# heavy 1: not shown
# heavy 2: not shown
# light: B1 light
# notes: heterodimerized; mutation in the B3 H chain only; also called He Ab I332_04F
# B27: GpH7-A5/GpH7-B3 variant I332_09D/GpL16-k0 (antibody, human IgG1, kappa)
# heavy 1: not shown
# heavy 2: not shown
# light: B1 light
# notes: heterodimerized; mutation in the B3 H chain only; also called He Ab I332_09D
# B28: GpH7-A5/GpH7-B3 variant A330_01G/GpL16-k0 (antibody, human IgG1, kappa)
# heavy 1: not shown
# heavy 2: not shown
# light: B1 light
# notes: heterodimerized; mutation in the B3 H chain only; also called He Ab A330_01G
# Target: T1, FcγRIIb extracellular domain with …
# Test: SPR (Biacore), captured antibody, FcγRIIb analyte; binding relative to GpH7-A5/GpH7-B3/GpL16-k0 = 100
row,He/Con_2b,Binder
1,199 % of control,B1
2,106 % of control,B2
3,149 % of control,B3
4,108 % of control,B4
5,105 % of control,B5
6,107 % of control,B6
7,230 % of control,B7
8,148 % of control,B8
9,111 % of control,B9
10,165 % of control,B10
11,175 % of control,B11
12,114 % of control,B12
13,144 % of control,B13
14,160 % of control,B14
15,172 % of control,B15
16,193 % of control,B16
17,105 % of control,B17
18,193 % of control,B18
19,159 % of control,B19
20,142 % of control,B20
21,140 % of control,B21
22,101 % of control,B22
23,155 % of control,B23
24,150 % of control,B24
25,106 % of control,B25
26,104 % of control,B26
27,147 % of control,B27
28,104 % of control,B28
